Experimental data from the DeepSol protein solubility set.

Test: soluble on expression in E. coli; label from the status in PepcDB or PDB records

| Sequence | soluble on expression in E. coli |
| --- | --- |
| MSLDSFLDIQRKKADADSKFIDCNGFRVHYKRYGSGKPPFIVLLHGSFLSIRSWRDVAVPLAENATVLAFDRPAFGLTSRPVPSRSNAARYSPEAQSDLVVALMDKLGMDRAVIVGNSTGGTLALLTALRHPRRVQGLVLVGAMIYSGYANSEVPAVMKPFMKAMSPVFSRLMKVIITKLYDKNIRGFWHVKSRLSDETLAAFRNDFMVGDWSRGFWELFLETHRLYFNRRVSSAWAPSLVVTGEHDLTVKTEESFRLARELPRAELLVIPDCAHLPQEEQPAAFVAGVKKFVEKLVEGHHHHHH | soluble |
| QTNSPASIPHLILELLKCEPDEPQVQAKIMAYLQQEQSNRNRQEKLSAFGLLCKMADQTLFSIVEWARSSIFFRELKVDDQMKLLQNCWSELLILDHIYRQVAHGKEGTIFLVTGEHVDYSTIISHTEVAFNNLLSLAQELVVRLRSLQFDQREFVCLKFLVLFSSDVKNLENLQLVEGVQEQVNAALLDYTVCNYPQQTEKFGQLLLRLPELRAISKQAEDYLYYKHVNGDVPYNNLLIEMLHAKRA | soluble |
| MPEPTKKEEPSKEKEAGTTPAKDWTLVETPPGEEQAKQNANSQLSILFIEKPQGGTVKVGEDITFIAKVKAEDLLRKPTIKWFKGKWMDLASKAGKHLQLKETFERHSRVYTFEMQIIKAKDNFAGNYRCEVTYKDKFDSCSFDLEVHESTGTTPNIDIRSAFKRSGEGQEDAGELDFSGLLKRREVKQQEEEPQVDVWELLKNAKPSEYEKIAFQYGITDLRGMLKRLKRMRREEKKSAAFAKILDPAYQVDKGGRVRFVVELADPKLEVKWYKNGQEIRPSTKYIFEHKGCQRILFINNCQMTDDSEYYVTAGDEKCSTELFVREPPIMVTKQLEDTTAYCGERVELECEVSEDDANVKWFKNGEEIIPGPKSRYRIRVEGKKHILIIEGATKADAAEYSVMTTGGQSSAKLSVDLKPLKILTPLTDQTVNLGKEICLKCEISENIPGKWTKNGLPVQESDRLKVVQKGRIHKLVIANALTEDEGDYVFAPDAYNVTLPAKVHVIDPPKIILDGLDADNTVTVIAGNKLRLEIPISGEPPPKAMWSRGDKAIMEGSGRIRTESYPDSSTLVIDIAERDDSGVYHINLKNEAGEAHASIKVKVVDFPDPPVAPTVTEVGDDWCIMNWEPPAYDGGSPILGYFIERKKKQSSRWMRLNFDLCKETTFEPKKMIEGVAYEVRIFAVNAIGISKPSMPSRPFVPLAVTSPPTLLTVDSVTDTTVTMRWRPPDHIGAAGLDGYVLEYCFEGTEDWIVANKDLIDKTKFTITGLPTDAKIFVRVKAVNAAGASEPKYYSQPILVKEIIEPPKIRIPRHLKQTYIRRVGEAVNLVIPFQGKPRPELTWKKDGAEIDKNQINIRNSETDTIIFIRKAERSHSGKYDLQVKVDKFVETASIDIQIIDRPGPPQIVKIEDVWGENVALTWTPPKDDGNAAITGYTIQKADKKSMEWFTVIEHYHRTSATITELVIGNEYYFRVFSENMCGLSEDATMTKESAVIARDGKIYKNPVYEDFDFSEAPMFTQPLVNTYAIAGYNATLNCSVRGNPKPKITWMKNKVAIVDDPRYRMFSNQGVCTLEIRKPSPYDGGTYCCKAVNDLGTVEIECKLEVKV | soluble |
| MTQSNPFQQYGITSGLAAAAAAKASVLAAMGTISDYVGVPTPIGLRIEVKVEMMKQIDARSGIAAVRKFSGDNPDTLNGALFESRAVIRDDGLINIFAGEGIGVAVSDGLPVRRGDPAINPVARMMIENAVREVSGSAGFDVYISVPGGEDLARDTMNPRVGISGGISILGTTGIEEPVSGPDYEAHIEYLLQTGRCVSTVAVMCPGNTAMRFAESYLRLHPASFILTGDRIGSAIEMAIEKGYREIVVFGLPGKLVKMAAGVMNTHSRIADARFETIAAYAALNGADRDTISKILSSNTVESAFAVLRSIGLLDSVAGAIASRIVERLRSPVWQIRRILLRHDRFRRQAIRVSPVAGHIETGE | not soluble |
| MAKFNVENEHVEVEIEKLYKFSPELVYEAWTKKDLLKQWFMTSARTNKEIEADVKEGGKYRIVDQQRNGKVNVIEGIYESLVMDEYVKMTIGMPGLSETQDVIEVEFFERETGGTQMLFYYRSLVEKERRFTNLEYKQKKKEYHDAMVHGFELMFDKMYHVIETSTQQ | soluble |
| MRPILLPDPPSLSTGVPDIFEQGGSHNVVRRAVVIGNGFPGSENQCIGLVRALGLSDNHLLYVFSLLGLSLSRSGNFILFSTSLECMNVQRRRNYLNFYGNNELRIESLVEHDAGAITEFRLQGTLRVTRPKGGLNEWLHWLPVGFHKKLDFILRHIYLYSRLMLGSKQSKYISSVPSENGGNVGLASILEADVKGIVNLARQTYEKDGPLIVIACGRDTISIASSIRRLASENVFVVQIQHPRSHLNRFDMVITPRHDYYPLTLEAQEQVPRFMRSWITPREPPQDHVVLTTGALHQIDYASLRKAASAWHDEFAALPKPLVVVNIGWPRSNCRYGADLAKQLTDSLLNVLATCGSVRITLSYKTPAKVSRVIFKELGDNPKVYIWNGQEPNPYMGHLAWGDAFVVTADSVSLISEACSTGKPVYVVGADHCKWKIAEFQKSLRERGVVRSFTGFEDMSESWSYPPLNDTAEAATRIRRELAARGWSLRS | soluble |
| MSAIWLSGAQAFCPAPASLPVAHVQRVVDGDTLRLTDGRNVRMIGLNTPETGKKGRSAEPFAEAAKKRLQALVDKSGGQISLRVGQQGKDHYGRTLANVYGRNGDNLEAQLLSEGLGYLVAVAPNVALVDCQQSAEREARQARRGVWRNSQVQPSDKLRKGGFAVVSGKVRSVQRNRGGIWIELHGSVVLRVAPDQAFRFDMAALERLKGRQIETRGWVIDRSGRGGLKAGQSRWMIALSHPAMLSLLEHHHHHH | not soluble |
| MGSDKIHHHHHHMADFSNQIITIKKGLDLPIAGEPRQIIESGNKPSQVAILGEEYVGLKPTMLVEVGDKVKKGQPLFEDKKTKGVLFTAPASGEIVAINRGDRRVLQSVVIGCDGLDVNEQIRFDILPDVISLSRQVVQDQLVSSGLWTALRTRPFSRVPALDSQPAGIFVTAIDTNPLAADPRLIIAEQLEAFKTGLQVLTRLTEGKVYLCQDKGDAIACDVSPNLEIRRFTGVHPAGLAGTHIHFTLPVSLERQVWHIGYQDVIAYGKLFQTGELYTDRIIALGGPSVLNPRLLRTQLGAELSVLVADEIKPGNNRVVSGSVLSGHTAAGVHDFLGRFHNQVSVLAEDAQHQVLPWVRGGSDKFSITRAVTSRLFGASKRFEFTTHQGGSQRAMMAFGQLDRVMPLDILPTLLVRDLVVRDTDEAQALGALELDEEDLALCTFVCPGKYDFGKELRACLDVIEREG | not soluble |
| GPGSMEERKTASGSAYYLPSPLLLSQNQGEERVKFVVVSGGVCSSLGKGVTTSAIGALLHASGYRVCSIKIDPYINIDAGLMSPYEHGEVYVLEDGGEADLDLGNYERWMSVHLTRDHNITTGKMYQKLLTKERAGGFLGKTVQLVPHFTNEVVNHIFKIC | not soluble |
| MGSSHHHHHHSQDMDKNELVQKAKLAEQAERYDDMAACMKSVTEQGAELSNEERNLLSVAYKNVVGARRSSWRVVSSIEQKTEGAEKKQQMAREYREKIETELRDICNDVLSLLEKFLIPNASQAESKVFYLKMKGDYYRYLAEVAAGDDKKGIVDQSQQAYQEAFEISKKEMQPTHPIRLGLALNFSVFYYEILNSPEKACSLAKTAFDEAIAELDTLSEESYKDSTLIMQLLRDNLTLWTSDTQGDEAEAGEGGEN | soluble |
| MPIGHSREVLVRLRDILALLADGCKTTSLIQQRLGLSHGRAKALIYVLEKEGRVTRVAFGNVALVCLSMDQYRQLVDGMIREVERLVTTNKLKFISPPRLHDLIIKDPQARKFFSSIIPIAHRTAIILSFLNHLLKMIYGEPYVKTDETVYLTANRKVHIEPPAK | soluble |
| MSCINLPTVLPGSPSKTRGQIQVILGPMFSGKSTELMRRVRRFQIAQYKCLVIKYAKDTRYSSSFCTHDRNTMEALPACLLRDVAQEALGVAVIGIDEGQFFPDIVEFCEAMANAGKTVIVAALDGTFQRKPFGAILNLVPLAESVVKLTAVCMECFREAAYTKRLGTEKEVEVIGGADKYHSVCRLCYFKKASGQPAGPDNKENCPVPGKPGEAVAARKLFAPQQILQCSPAN | not soluble |
| MSLKFHSPYLPLIKLIIVVKTPLELITDNLLPTIKVLIAKKLRELGMSQNRIAILLGVTQPAVKQYLDEDENFQYEKLRELGLKDEEIEDITQDLVNILNKNDTKSAMYYITDIGLRYLSELKFCKFHKENDKYIPQDCDICRYIYRQNEEERMEIALSMLQNEFVTPLIPEVLSNLAFARKNPKGINDVLAVEGRITKVKGIPTPASNPSWGSSKHLATILLKIMQKDPSIRSIMNIKYDKKIDEALHFLNFRIVYVGPSDENDDESISNLIYSAFYSGIDCVVHLGGKGLEPITYVLGKDPVEVVKKVIEIGKKYRELTENEGHHHHHH | soluble |
| MPGERFSHSRCHAIAIKELQRRTENRDGTALHILPKSQRKLAIFLINMDSATKRLTDMNARLDAMGLKAERVAGVNGRELQYPIPEFSEISYMLMHGRRTSPPEIGCYLSHVACANKFMTGDADIALILEDDVVFEDDFLDAIDEAVLNGNDWDILRLTTVSNGRKFAFRALSNGRSLAVALTREKGSGAYLVNRRAGKWISKLIPMRLAYDIAFDLEYLSGLKAAFIYPLCATQDADGESQIQNNLRIYRLPRWRYFTVLPYRAYLETSRFLLRGLRFLVAKAKVAMERGKPKAVQAGRLEHHHHHH | soluble |
| MGSSHHHHHHSSGENLYFQGHMNVLVIGRGGREHAIAWKAAQSPLVGKLYVAPGNPGIADVAELVHIDELDIEALVQFAKQQAIDLTIVGPEAPLASGIVDRFMAEGLRIFGPSQRAALIEGSKAFAKELMKKYGIPTADHAAFTSYEEAKAYIEQKGAPIVIKADGLAAGKGVTVAQTVEEALAAAKAALVDGQFGTAGSQVVIEEYLEGEEFSFMAFVNGEKVYPLAIAQDHKRAYDGDEGPNTGGMGAYSPVPQISDEMMDAALEAILRPAAKALAAEGRPFLGVLYAGLMATANGPKVIEFNARFGDPEAQVVLPRLKTDLVEAVLAVMDGKELELEWTDEAVLGVVLAAKGYPGAYERGAEIRGLDRISPDALLFHAGTKREGGAWYTNGGRVLLLAAKGETLAKAKEKAYEQLAAIDCDGLFYRRDIGRRAIERASAAYTRMKGR | soluble |
| MGAFLDKPKMEKHNAQGQGNGLRYGLSSMQGWRVEMEDAHTAVIGLPSGLESWSFFAVYDGHAGSQVAKYCCEHLLDHITNNQDFKGSAGAPSVENVKNGIRTGFLEIDEHMRVMSEKKHGADRSGSTAVGVLISPQHTYFINCGDSRGLLCRNRKVHFFTQDHKPSNPLEKERIQNAGGSVMIQRVNGSLAVSRALGDFDYKCVHGKGPTEQLVSPEPEVHDIERSEEDDQFIILACDGIWDVMGNEELCDFVRSRLEVTDDLEKVCNEVVDTCLYKGSRDNMSVILICFPNAPKVSPEAVKKEAELDKYLECRVEEIIKKQGEGVPDLVHVMRTLASENIPSLPPGGELASKRNVIEAVYNRLNPYKNDDTDSTSTDDMWLEHHHHHH | soluble |
| MDNFENLSTKDSFPEHFRRAVRGIFPDSQLPDEFFLVVYRDGKFERSLQPTATFAGRKAPVVIIPQWKEKHTLEIGNYRKVVDEEFYQIGGKMIYAGRDIFIEDVPGLYRNIDMVFLDGEKECIYRDGFLMMEEKILKIEEPVDVVDGIVITRHRMGSKEIDDTILFRWNNFVLTASGFLVDIKGKWSWKVSNAPVEFSFQGDIFYVLDVCGFLRSYNLKTRQLLWEKKFEGAWGLDSSKDRVFLGAGDEVLVLNAQDGETIERMEADDFAVWKGRLLVYKDGKVDGEDMEGFFIRNFGMPLFVSGKRVVMFGTEKKEFEEVEKVRLFDWGTVIKAGDELWLIRRD | not soluble |
